Assays:
[1] = tested on: bleomycin mouse model of pulmonary fibrosis; assay: Bleomycin mouse pulmonary fibrosis model; format: in vivo; conditions: bleomycin model, 21 d
Method: (§1) 6 to 8-week-old male C57BL/6J mice (purchased from Guangdong Sijiajingda Biotechnology Co., Ltd., license No.: SCXK (Guangdong) 2020-0052) were grouped, modeled, and administered according to the protocols shown in Tables 6 and 7 below. The modeling with bleomycin (Nippon Kayaku, 15 mg powder, and dose: 1.5 mg/kg) and silica (SiO2, sigma, USA, S5631-500 g, and dose: 2.5 mg/mouse) was started on day 0 (DO). The administration was started on day 1 (D1), and normal saline was adopted as a solvent for an antibody. A positive drug pirfenidone (Beijing Kangdini Pharmaceutical Co., Ltd., 100 mg capsule) was adopted in a positive control group, and the humanized antibody hu.CA1 (VH1−VL2) of the present application was adopted in an anti-IL-9 antibody group.
(§2) A body weight of each mouse was measured every day. After the bleomycin model group was administered for 21 d and the silica model group was administered for 30 d, mice were sacrificed to collect lung tissues. The lung tissues each were stained to detect pathological changes in the lung tissues. Specifically, a degree of alveolar inflammation was detected through HE staining (an HE staining kit was purchased from Shanghai Beyotime Biotechnology, C0105M). A degree of pulmonary fibrosis was detected through Masson staining (a Masson staining kit was purchased from Nanjing Jiancheng Institute of Biological Engineering, D026-1-2). Scoring criteria for the HE staining and Masson staining were shown in Table 8 and Table 9 below, respectively (as shown in references: Matute-Bello G, Downey G, Moore B B, et al. An official American Thoracic Society workshop report: features and measurements of experimental acute lung injury in animals. Am J Respir Cell Mol Biol. 2011; 44 (5): 725-738. doi: 10.1165/rcmb.2009-0210ST and Lee Hyun Ju, Goo Jin Mo, Kim Na Ra et al. Semiquantitative measurement of murine bleomycin-induced lung fibrosis in in vivo and postmortem conditions using microcomputed tomography: correlation with pathologic scores—initial results. [J].Invest Radiol, 2008, 43: 453-60).

[2] = tested on: silica mouse model of pulmonary fibrosis; assay: Silica mouse pulmonary fibrosis model; format: in vivo, C57BL/6J mice; conditions: 30 d
Method: as §1, §2

IL-9 = target: T1, IL-9 (Homo sapiens, UniProt P15248); assay: ELISA binding of humanized antibodies to the target antigen; conditions: ELISA of culture supernatant of 293F cells, control chimeric antibody CA1
T1 construct: pcDNA3.4-IL9 (19-144)-His (P15248); His (C); made in house; host or cells: 293F cells (transient transfection)
Method: ELISA was conducted according to a standard protocol to determine the affinity of a purified antibody for the IL-9-His recombinant protein. In short, the IL-9-His recombinant protein was diluted with sterile PBS and added at 100 μL/well to a 96-well plate. The plate was incubated at 4° C. overnight and then blocked with a blocking buffer. 100 μL of a purified anti-IL-9 antibody serially diluted was added to the plate, and the plate was incubated for 1 h at room temperature. PBS was added to a control well. The plate was washed with PBST 3 times. Then 100 μL of horseradish peroxidase (HRP)-labeled anti-mouse IgG H&L (BIODRAGON, CAT #BF03001) was added, and the plate was incubated for 1 h at room temperature. The plate was washed with PBST 3 times. Then a chromogenic reaction was conducted with a 3,3′,5,5′-tetramethylbenzidine (TMB) chromogenic solution at room temperature. An OD value in each well was read by a microplate reader. Data was processed with PRISM GraphPad, and curves were plotted. The EC50 value for each candidate antibody was calculated.
Humanized antibody expression vectors carrying a designed heavy-chain or light-chain sequence were transiently transfected into 293F cells in pairs, and then a resulting culture supernatant was collected. According to a standard protocol (with reference to part 5.1 in Example 1), with a human-mouse chimeric antibody CA1 constructed with VH and VL of the original murine antibody as a control, the binding of a humanized antibody to a target antigen was detected by ELISA. The method for ELISA was the same as described in 5.1 of Example 1. […] In the follow-up experiments, the four combinations of VH1−VL2, VH1−VL4, VH2−VL4, and VH3−VL4 (hu.CA1 to hu.CA4) were taken as examples for antibody purification and function testing. […]

[3] = antibody 100 μg i.p. every other day, pirfenidone 300 mg/kg intragastric daily

T1 sequence (P15248 19-144): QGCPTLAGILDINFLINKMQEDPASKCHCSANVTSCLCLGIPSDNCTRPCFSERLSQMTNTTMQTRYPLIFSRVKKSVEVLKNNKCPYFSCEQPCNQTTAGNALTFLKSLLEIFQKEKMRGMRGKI

binding to IL-9 (IL-9)	Molecule	further results
	Cc1ccc(=O)n(-c2ccccc2)c1 [pirfenidone, reference compound]	collagen fibers and fibrosis regions of lung tissues (Masson staining) [1]: significantly reduced; inflammation score ([1]; HE staining, FIG. 9B): significantly reduce an inflammation score; fibrosis score ([1]; Masson staining, FIG. 10B): significantly reduce a fibrosis score; lung tissue structures (HE staining) [1, 3]: improved; collagen fibers and fibrosis regions of lung tissues (Masson staining) [2]: significantly reduced; inflammation score ([2]; HE staining, FIG. 11B): significantly reduce an inflammation score; fibrosis score ([2]; Masson staining, FIG. 12B): reduce a fibrosis score; lung tissue structures (HE staining) [2, 3]: improved
bind to IL-9 with high affinity	VH3+VL4: humanized antibody, VH SEQ ID NO: 28, VL SEQ ID NO: 33 (antibody, V domains shown) VH: EVQLVQSGAEVMKPGASVKVSCKATGYTFTGYWIEWVRLAPGQGLEWMGEILPGSGSTNYNQKLQGRVTFTADTSTNTAYMELRSLRSDDTAIYYCARRTYYYGIPEDYWGQGTLVTVSS VL: DIVMTQSPKFLSASVGDRVTITCKASQNVGTNVAWHQQKPGQSPKPLIYSASYRYSGVPSRFTGSGSGTDFTLTISNLQPEDFAEYFCQQYNSYPLTFGAGTKLEIK	
bind to IL-9 with high affinity	VH4+VL1: humanized antibody, VH SEQ ID NO: 29, VL SEQ ID NO: 30 (antibody, V domains shown) VH: EVQLKQSGAEVMKPGASVKLSCKATGYTFTGYWIEWVKLAPGHGLEWIGEILPGSGSTNYNEEFQGRVTFTADTSSNTAYMELSRLRSDDTAIYYCARRTYYYGIPEDYWGQGTLVTVSS VL: DIVMTQSQKFLSTSVGDRVTITCRASQNVGTNVAWHQQKPGQSPKPLIYSASYRYSGVPSRFTGSGSGTDFTLTISNLQPEDFAEYFCQQYNSYPLTFGAGTKLEIK	
bind to IL-9 with high affinity	VH1+VL3: humanized antibody, VH SEQ ID NO: 26, VL SEQ ID NO: 32 (antibody, V domains shown) VH: EVQLKQSGAEVMKPGASVKVSCKATGYTFTGYWIEWVRLAPGHGLEWMGEILPGSGSTNYNQKFQGRVTFTADTSINTAYMELSRLRSDDTAIYYCARRTYYYGIPEDYWGQGTLVTVSS VL: DIVMTQSPKFVSTSVGDRVTITCRASQNVGTNVAWHQQKPGQSPKPLIYSASYRYSGVPSRFTGSGSGTDFTLTISNLQPEDFAEYFCQQYNSYPLTFGAGTKLEIK	
bind to IL-9 with high affinity	VH3+VL3: humanized antibody, VH SEQ ID NO: 28, VL SEQ ID NO: 32 (antibody, V domains shown) VH: EVQLVQSGAEVMKPGASVKVSCKATGYTFTGYWIEWVRLAPGQGLEWMGEILPGSGSTNYNQKLQGRVTFTADTSTNTAYMELRSLRSDDTAIYYCARRTYYYGIPEDYWGQGTLVTVSS VL: DIVMTQSPKFVSTSVGDRVTITCRASQNVGTNVAWHQQKPGQSPKPLIYSASYRYSGVPSRFTGSGSGTDFTLTISNLQPEDFAEYFCQQYNSYPLTFGAGTKLEIK	
bind to IL-9 with high affinity	VH2+VL3: humanized antibody, VH SEQ ID NO: 27, VL SEQ ID NO: 32 (antibody, V domains shown) VH: EVQLVQSGAEVMKPGASVKVSCKATGYTFTGYWIEWVRLAPGQGLEWMGEILPGSGSTNYNQKFQGRVTFTADTSTNTAYMELSSLRSEDTAIYYCARRTYYYGIPEDYWGQGTLVTVSS VL: DIVMTQSPKFVSTSVGDRVTITCRASQNVGTNVAWHQQKPGQSPKPLIYSASYRYSGVPSRFTGSGSGTDFTLTISNLQPEDFAEYFCQQYNSYPLTFGAGTKLEIK	
bind to IL-9 with high affinity	VH3+VL1: humanized antibody, VH SEQ ID NO: 28, VL SEQ ID NO: 30 (antibody, V domains shown) VH: EVQLVQSGAEVMKPGASVKVSCKATGYTFTGYWIEWVRLAPGQGLEWMGEILPGSGSTNYNQKLQGRVTFTADTSTNTAYMELRSLRSDDTAIYYCARRTYYYGIPEDYWGQGTLVTVSS VL: DIVMTQSQKFLSTSVGDRVTITCRASQNVGTNVAWHQQKPGQSPKPLIYSASYRYSGVPSRFTGSGSGTDFTLTISNLQPEDFAEYFCQQYNSYPLTFGAGTKLEIK	
bind to IL-9 with high affinity	VH1+VL1: humanized antibody, VH SEQ ID NO: 26, VL SEQ ID NO: 30 (antibody, V domains shown) VH: EVQLKQSGAEVMKPGASVKVSCKATGYTFTGYWIEWVRLAPGHGLEWMGEILPGSGSTNYNQKFQGRVTFTADTSINTAYMELSRLRSDDTAIYYCARRTYYYGIPEDYWGQGTLVTVSS VL: DIVMTQSQKFLSTSVGDRVTITCRASQNVGTNVAWHQQKPGQSPKPLIYSASYRYSGVPSRFTGSGSGTDFTLTISNLQPEDFAEYFCQQYNSYPLTFGAGTKLEIK	
bind to IL-9 with high affinity	VH4+VL3: humanized antibody, VH SEQ ID NO: 29, VL SEQ ID NO: 32 (antibody, V domains shown) VH: EVQLKQSGAEVMKPGASVKLSCKATGYTFTGYWIEWVKLAPGHGLEWIGEILPGSGSTNYNEEFQGRVTFTADTSSNTAYMELSRLRSDDTAIYYCARRTYYYGIPEDYWGQGTLVTVSS VL: DIVMTQSPKFVSTSVGDRVTITCRASQNVGTNVAWHQQKPGQSPKPLIYSASYRYSGVPSRFTGSGSGTDFTLTISNLQPEDFAEYFCQQYNSYPLTFGAGTKLEIK	
bind to IL-9 with high affinity	VH2+VL4: humanized antibody, VH SEQ ID NO: 27, VL SEQ ID NO: 33 (antibody, V domains shown) VH: EVQLVQSGAEVMKPGASVKVSCKATGYTFTGYWIEWVRLAPGQGLEWMGEILPGSGSTNYNQKFQGRVTFTADTSTNTAYMELSSLRSEDTAIYYCARRTYYYGIPEDYWGQGTLVTVSS VL: DIVMTQSPKFLSASVGDRVTITCKASQNVGTNVAWHQQKPGQSPKPLIYSASYRYSGVPSRFTGSGSGTDFTLTISNLQPEDFAEYFCQQYNSYPLTFGAGTKLEIK	
bind to IL-9 with high affinity	VH2+VL1: humanized antibody, VH SEQ ID NO: 27, VL SEQ ID NO: 30 (antibody, V domains shown) VH: EVQLVQSGAEVMKPGASVKVSCKATGYTFTGYWIEWVRLAPGQGLEWMGEILPGSGSTNYNQKFQGRVTFTADTSTNTAYMELSSLRSEDTAIYYCARRTYYYGIPEDYWGQGTLVTVSS VL: DIVMTQSQKFLSTSVGDRVTITCRASQNVGTNVAWHQQKPGQSPKPLIYSASYRYSGVPSRFTGSGSGTDFTLTISNLQPEDFAEYFCQQYNSYPLTFGAGTKLEIK	

Source: patent publication US20250122278A1, “ANTI-INTERLEUKIN-9 ANTIBODY AND USE THEREOF” (GUANGDONG KEGUANDA PHARMACEUTICAL TECHNOLOGY CO., LTD., priority 2022, published 2025)
